# Test results from patent US20260049138A1 (Chugai, published 2026).
# Residue numbers refer to the chain shown, from its start. In names and notes the source's numbering stands.
# B1: CE115HA000 G98K one-arm antibody (antibody, human IgG1, kappa, L234A L235A, N297A, name in Kabat numbering)
# heavy: QVQLVESGGGVVQPGRSLRLSCAASGFTFSNAWMHWVRQAPGKGLEWVAQIKAKSNNYATYYAESVKGRFTISRDDSKNSLYLQMNSLKTEDTAVYYCRYVHYKAYYGVDAWGQGTTVTVSSASTKGPSVFPLAPSSKSTSGGTAALGCLVKDYFPEPVTVSWNSGALTSGVHTFPAVLQSSGLYSLSSVVTVPSSSLGTQTYICNVNHKPSNTKVDKKVEPKSCDKTHTCPPCPAPEAAGGPSVFLFPPKPKDTLMISRTPEVTCVVVDVSHEDPEVKFNWYVDGVEVHNAKTKPREEQYASTYRVVSVLTVLHQDWLNGKEYKCKVSNKALPAPIEKTISKAKGQPREPQVYTLPPSRCELTKNQVSLSCAVKGFYPSDIAVEWESNGQPENNYKTTPPVLDSDGSFFLVSKLTVDKSRWQQGNVFSCSVMHEALHNHYTQKSLSLSPDYKDDDDK
# chain: EPKSSDKTHTCPPCPAPELLGGPSVFLFPPKPKDTLMISRTPEVTCVVVDVSHEDPEVKFNWYVDGVEVHNAKTKPREEQYNSTYRVVSVLTVLHQDWLNGKEYKCKVSNKALPAPIEKTISKAKGQPREPQVCTLPPSRDELTKNQVSLWCLVKGFYPSDIAVEWESNGQPENNYKTTPPVLDSDGSFFLYSKLTVDKSRWQQGNVFSCSVMHEALHNRYTQKSLSLSP
# light: DIVMTQSPLSLPVTPGEPASISCRSSQSLVHSNRNTYLHWYQQKPGQAPRLLIYKVSNRFSGVPDRFSGSGSGTDFTLKISRVEAEDVGVYYCGQGTQVPYTFGQGTKLEIKRTVAAPSVFIFPPSDEQLKSGTASVVCLLNNFYPREAKVQWKVDNALQSGNSQESVTEQDSKDSTYSLSSTLTLSKADYEKHKVYACEVTHQGLSSPVTKSFNRGEC
# B2: CE115HA000 Q50A one-arm antibody (antibody, human IgG1, kappa, L234A L235A, N297A, name in Kabat numbering)
# heavy: B1 heavy with Q50A, K104G
# chain: B1 chain
# light: B1 light
# B3: CE115HA000 K52E one-arm antibody (antibody, human IgG1, kappa, L234A L235A, N297A, name in Kabat numbering)
# heavy: B1 heavy with K52E, K104G
# chain: B1 chain
# light: B1 light
# B4: CE115HA000 W33L one-arm antibody (antibody, human IgG1, kappa, L234A L235A, N297A, name in Kabat numbering)
# heavy: B1 heavy with W33L, K104G
# chain: B1 chain
# light: B1 light
# B5: CE115HA000 S52cK one-arm antibody (antibody, human IgG1, kappa, L234A L235A, N297A, name in Kabat numbering)
# heavy: B1 heavy with S55K, K104G
# chain: B1 chain
# light: B1 light
# B6: CE115HA000 / GLS3000 one-arm antibody (unaltered) (antibody, human IgG1, kappa, L234A L235A, N297A)
# heavy: B1 heavy with K104G
# chain: B1 chain
# light: B1 light
# notes: All L chain altered forms m3-m332 have this format; for them only VH and VL are written out; also called GLS3000-containing antibody
# B7: GLS3000 L33P (antibody, name in Kabat numbering, V domains shown)
# VH: QVQLVESGGGVVQPGRSLRLSCAASGFTFSNAWMHWVRQAPGKGLEWVAQIKAKSNNYATYYAESVKGRFTISRDDSKNSLYLQMNSLKTEDTAVYYCRYVHYGAYYGVDAWGQGTTVTVSS
# VL: DIVMTQSPLSLPVTPGEPASISCRSSQSLVHSNRNTYPHWYQQKPGQAPRLLIYKVSNRFSGVPDRFSGSGSGTDFTLKISRVEAEDVGVYYCGQGTQVPYTFGQGTKLEIK
# notes: one-arm, rest as m2
# B8: One-arm antibody: NNS6f51 (CE115HA340 with GFLVLW inserted between Kabat positions 99 and 100) / Kn010G3 / GLS3000-kappa (antibody)
# chain 1: QVQLVESGGGLVQPGRSLRLSCAASGFTFSNAWMHWVRQAPGKGLEWVAQIKDKSNNYATYYAESVKGRFTISRDDSKNSIYLQMNSLKTEDTAVYYCRYVHYAAGFLVLWYYGVDAWGQGTTVTVSSASTKGPSVFPLAPSSKSTSGGTAALGCLVKDYFPEPVTVSWNSGALTSGVHTFPAVLQSSGLYSLSSVVTVPSSSLGTQTYICNVNHKPSNTKVDKKVEPKSCDKTHTCPPCPAPEAAGGPSVFLFPPKPKDTLMISRTPEVTCVVVDVSHEDPEVKFNWYVDGVEVHNAKTKPREEQYASTYRVVSVLTVLHQDWLNGKEYKCKVSNKALPAPIEKTISKAKGQPREPQVYTLPPSRCELTKNQVSLSCAVKGFYPSDIAVEWESNGQPENNYKTTPPVLDSDGSFFLVSKLTVDKSRWQQGNVFSCSVMHEALHNHYTQKSLSLSPDYKDDDDK
# chain 2: B1 chain
# chain 3: B1 light
# B9: One-arm antibody: NNS6f47 (CE115HA340 with HFMWWG inserted between Kabat positions 99 and 100) / Kn010G3 / GLS3000-kappa (antibody)
# chain 1: B8 chain 1 with G106H, L108M, V109W, L110W, W111G
# chain 2: B1 chain
# chain 3: B1 light
# B10: One-arm antibody: NNS6f54 (CE115HA340 with FEWVGW inserted between Kabat positions 99 and 100) / Kn010G3 / GLS3000-kappa (antibody)
# chain 1: B8 chain 1 with G106F, F107E, L108W, L110G
# chain 2: B1 chain
# chain 3: B1 light
# B11: 154R5A02#1 one-arm antibody (antibody, human IgG1, kappa, L234A L235A, N297A)
# heavy: QVQLVESGGGLVQPGRSLRLSCAASGFTFSNAWMHWVRQAPGKGLEWVAQIKDRGNNYNTYYAPSVKGRFTISRDDSKNSIYLQMNSLKTEDTAVYYCRYVHYGSYFFSGSSFGVDIWGQGTTVTVSSASTKGPSVFPLAPSSKSTSGGTAALGCLVKDYFPEPVTVSWNSGALTSGVHTFPAVLQSSGLYSLSSVVTVPSSSLGTQTYICNVNHKPSNTKVDKKVEPKSCDKTHTCPPCPAPEAAGGPSVFLFPPKPKDTLMISRTPEVTCVVVDVSHEDPEVKFNWYVDGVEVHNAKTKPREEQYASTYRVVSVLTVLHQDWLNGKEYKCKVSNKALPAPIEKTISKAKGQPREPQVYTLPPSRCELTKNQVSLSCAVKGFYPSDIAVEWESNGQPENNYKTTPPVLDSDGSFFLVSKLTVDKSRWQQGNVFSCSVMHEALHNHYTQKSLSLSPDYKDDDDK
# chain: B1 chain
# light: B1 light
# notes: As m48
# B12: 154R5F08#3 one-arm antibody (antibody, human IgG1, kappa, L234A L235A, N297A)
# heavy: B11 heavy with R54K, N57Q, N59A, P64E, F70Y, S105T, S109A, G110L, S111P, S112A
# chain: B1 chain
# light: B1 light
# notes: As m48
# B13: 154R5F08#1 one-arm antibody (antibody, human IgG1, kappa, L234A L235A, N297A)
# heavy: B11 heavy with R54K, N57Q, N59A, P64E, S105T, S109A, G110L, S111P, S112A
# chain: B1 chain
# light: B1 light
# notes: As m48
# B14: 154R5A02#2 one-arm antibody (antibody, human IgG1, kappa, L234A L235A, N297A)
# heavy: B11 heavy with V101A
# chain: B1 chain
# light: B1 light
# notes: As m48
# B15: 154R5E11#3 one-arm antibody (antibody, human IgG1, kappa, L234A L235A, N297A)
# heavy: B11 heavy with N59A, T60A, P64E, S109A, G110S, S111F, S112Y, T123A
# chain: B1 chain
# light: B1 light
# notes: As m48
# Molecular target: CD3ε homodimer protein (human, UniProt P07766 23-126, limits assumed)
# Experiment: SPR Biacore T200, CD3e homodimer on chip
# Description: An appropriate amount of CD3ε homodimer protein was immobilized onto Sensor chip CM4 (GE Healthcare Japan Corp.) by the amine coupling method. Then, the antibody having an appropriate concentration was injected thereto as an analyte and allowed to interact with the CD3ε homodimer protein on the sensor chip. Then, the sensor chip was regenerated by the injection of 10 mmol/L glycine-HCl (pH 1.5). The assay was conducted at 25° C., and HBS-EP+ (GE Healthcare Japan Corp.) was used as a running buffer. […] Each parameter was calculated using Biacore T200 Evaluation Software (GE Healthcare Japan Corp.).
row,Binder,KD ratio (KD of CE115HA000/KD of altered form)
1,B1,1.85
2,B2,22.8
3,B3,18.4
4,B4,56600
5,B5,0.88

# Molecular target: T1, CD3ε homodimer protein (human, UniProt P07766 23-126, limits assumed)
# T1 construct: also called CD3 (CD3ε)
# Experiment: SPR
# T1 sequence (P07766 23-126 limits assumed): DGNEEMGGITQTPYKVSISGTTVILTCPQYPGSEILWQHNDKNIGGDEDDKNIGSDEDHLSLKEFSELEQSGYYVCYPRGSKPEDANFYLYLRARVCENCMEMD
# Description: Each one-amino acid altered form constructed, expressed, and purified in the paragraph (6-2) was evaluated using Biacore T200 (GE Healthcare Japan Corp.). An appropriate amount of CD3ε homodimer protein was immobilized onto Sensor chip CM4 (GE Healthcare Japan Corp.) by the amine coupling method. Then, the antibody having an appropriate concentration was injected thereto as an analyte and allowed to interact with the CD3ε homodimer protein on the sensor chip. Then, the sensor chip was regenerated by the injection of 10 mmol/L glycine-HCl (pH 1.5). The assay was conducted at 25° C., and HBS-EP+ (GE Healthcare Japan Corp.) was used as a running buffer. […] Each parameter was calculated using Biacore T200 Evaluation Software (GE Healthcare Japan Corp.).
# Specifically, when the amount of the GLS3000-containing antibody bound was defined as X and the amount of the L chain one-amino acid altered form bound was defined as Y, a value of Z (ratio of amounts bound)=Y/X was used.
row,Binder,KD ratio to GLS3000
1,B6,0.98
2,B7,32.7

# Molecular target: T2, CD3ε homodimer protein (human, UniProt P07766 23-126, limits assumed)
# T2 construct: also called human CD3ε homodimer protein
# Experiment: SPR (Biacore T200), one-arm antibody as analyte over immobilised CD3ε homodimer protein, single-cycle kinetics
# T2 sequence (P07766 23-126 limits assumed): as above
row,Binder,Kd
1,B8,0.031 µM
2,B9,0.031 µM
3,B10,0.029 µM

# Molecular target: T3, human CD154 (human, UniProt P29965 113-261, limits assumed, biotin-labeled)
# T3 construct: also called biotin-labeled human CD154; biotinylated human CD154
# T3 sequence (looked up): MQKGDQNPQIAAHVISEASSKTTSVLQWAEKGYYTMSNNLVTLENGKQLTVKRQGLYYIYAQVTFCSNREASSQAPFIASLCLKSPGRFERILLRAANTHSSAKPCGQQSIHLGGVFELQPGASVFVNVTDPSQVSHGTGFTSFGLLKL
# Experiment: ECL competition, CD3ε[+]: CD3ε homodimer added as competitor [2]
# Description: Next, each obtained IgG was evaluated for its binding to CD3 and human CD154 at the same time by the competition method (electrochemiluminescence method (ECL method)).
# A TBST solution containing 0.5% BSA (referred to as a blocking solution; the TBST solution was TBS (manufactured by Takara Bio Inc.) supplemented with 0.1% Tween 20) was added at 150 μL/well to streptavidin plate (MSD K.K.), and the plate was incubated at room temperature for 1 hour or longer. After removal of the blocking solution, each well was washed three times with 250 μL of a TBST solution. The antibody-antigen complex solution was added thereto at 50 μL/well, and the plate was incubated at room temperature for 1 hour so that the biotinylated antigen-antibody-detection sulfo-tag antibody complex solution bound via the biotinylated antigen to the streptavidin plate. After removal of the antibody-antigen complex solution, each well was washed three times with a TBST solution, and a solution of 4×READ buffer (MSD K.K.) diluted 2-fold with water was added thereto at 150 μL/well, followed by the detection of the luminescence signal of the sulfo-tag using Sector Imager 2400 (MSD K.K.).
row,Binder,relative ECL reaction (to no antigen coating)
1,B11,10
2,B12,10
3,B13,13
4,B14,106
5,B15,1
